Assay results taken from the supplement of paper PMC9112550, “Optimization of the antimicrobial peptide Bac7 by deep mutational scanning” (BMC Biology, 2022).

test system: Escherichia coli TOP10; assay: shrunken log2 fold change of peptide-encoding DNA abundance (4.5 h post-induction vs induction); higher = less antimicrobial activity (less host growth inhibition); details: time post-induction: 4.5 h; library: site-saturation at positions 5, 18, 19, 20
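Also: peptides expressed intracellularly from a pBAD plasmid library in pooled LB shake-flask culture, induced with 0.3% L-arabinose, DNA abundance read by NGS, three biological replicates, DESeq2 with apeglm shrinkage.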

Row | Sequence | shrunken log2 fold change
1 | RRIRHRPPRLPRPRPRPCYYPRP | -0.258
2 | RRIRHRPPRLPRPRPRPDAFPRP | -0.0702
3 | RRIRHRPPRLPRPRPRPDAIPRP | -0.025
4 | RRIRHRPPRLPRPRPRPDDIPRP | -0.0131
5 | RRIRHRPPRLPRPRPRPDDSPRP | -0.01
6 | RRIRHRPPRLPRPRPRPDEAPRP | -0.0728
7 | RRIRHRPPRLPRPRPRPDEPPRP | 0.197
8 | RRIRHRPPRLPRPRPRPDFFPRP | -0.26
9 | RRIRHRPPRLPRPRPRPDGIPRP | -0.0529
10 | RRIRHRPPRLPRPRPRPDGSPRP | -0.0231
11 | RRIRHRPPRLPRPRPRPDGTPRP | -0.0362
12 | RRIRHRPPRLPRPRPRPDHAPRP | 0.0557
13 | RRIRHRPPRLPRPRPRPDKDPRP | -0.44
14 | RRIRHRPPRLPRPRPRPDLGPRP | 0.0527
15 | RRIRHRPPRLPRPRPRPDLHPRP | -0.0566
16 | RRIRHRPPRLPRPRPRPDMWPRP | -0.175
17 | RRIRHRPPRLPRPRPRPDNTPRP | -0.0928
18 | RRIRHRPPRLPRPRPRPDNWPRP | -0.335
19 | RRIRHRPPRLPRPRPRPDPAPRP | 0.189
20 | RRIRHRPPRLPRPRPRPDPIPRP | 0.0172
21 | RRIRHRPPRLPRPRPRPDQPPRP | 0.183
22 | RRIRHRPPRLPRPRPRPDSLPRP | -0.0392
23 | RRIRHRPPRLPRPRPRPDSMPRP | 0.0959
24 | RRIRHRPPRLPRPRPRPDSSPRP | 0.00209
25 | RRIRHRPPRLPRPRPRPDVMPRP | -0.374

Row | Sequence | shrunken log2 fold change
26 | RRIRHRPPRLPRPRPRPDYDPRP | -0.278
27 | RRIRHRPPRLPRPRPRPDYTPRP | -0.00281
28 | RRIRHRPPRLPRPRPRPEDEPRP | 0.0969
29 | RRIRHRPPRLPRPRPRPEGKPRP | 0.082
30 | RRIRHRPPRLPRPRPRPEGLPRP | 0.00161
31 | RRIRHRPPRLPRPRPRPEIRPRP | 0.0924
32 | RRIRHRPPRLPRPRPRPELEPRP | -0.0141
33 | RRIRHRPPRLPRPRPRPEMTPRP | 0.0257
34 | RRIRHRPPRLPRPRPRPENNPRP | -0.304
35 | RRIRHRPPRLPRPRPRPEPDPRP | 0.257
36 | RRIRHRPPRLPRPRPRPEPPPRP | 0.545
37 | RRIRHRPPRLPRPRPRPEQMPRP | 0.023
38 | RRIRHRPPRLPRPRPRPERSPRP | 0.0418
39 | RRIRHRPPRLPRPRPRPESIPRP | -0.107
40 | RRIRHRPPRLPRPRPRPETNPRP | 0.0688
41 | RRIRHRPPRLPRPRPRPEYLPRP | 0.0871
42 | RRIRHRPPRLPRPRPRPFAGPRP | -0.205
43 | RRIRHRPPRLPRPRPRPFAHPRP | 0.186
44 | RRIRHRPPRLPRPRPRPFARPRP | -0.107
45 | RRIRHRPPRLPRPRPRPFCLPRP | -0.262
46 | RRIRHRPPRLPRPRPRPFCSPRP | -0.171
47 | RRIRHRPPRLPRPRPRPFDKPRP | -0.118
48 | RRIRHRPPRLPRPRPRPFDWPRP | -0.0238
49 | RRIRHRPPRLPRPRPRPFFRPRP | -0.0964
50 | RRIRHRPPRLPRPRPRPFFYPRP | -0.4

Row | Sequence | shrunken log2 fold change
51 | RRIRHRPPRLPRPRPRPFGCPRP | 0.0728
52 | RRIRHRPPRLPRPRPRPFGVPRP | -0.326
53 | RRIRHRPPRLPRPRPRPFHLPRP | -0.438
54 | RRIRHRPPRLPRPRPRPFIRPRP | 0.00659
55 | RRIRHRPPRLPRPRPRPFKLPRP | -0.196
56 | RRIRHRPPRLPRPRPRPFKPPRP | -0.163
57 | RRIRHRPPRLPRPRPRPFKVPRP | -0.0904
58 | RRIRHRPPRLPRPRPRPFLTPRP | -0.217
59 | RRIRHRPPRLPRPRPRPFMQPRP | -0.348
60 | RRIRHRPPRLPRPRPRPFPAPRP | -0.405
61 | RRIRHRPPRLPRPRPRPFPSPRP | 0.0517
62 | RRIRHRPPRLPRPRPRPFQAPRP | -0.312
63 | RRIRHRPPRLPRPRPRPFQMPRP | -0.0675
64 | RRIRHRPPRLPRPRPRPFQQPRP | -0.0263
65 | RRIRHRPPRLPRPRPRPFRGPRP | -0.254
66 | RRIRHRPPRLPRPRPRPFSLPRP | -0.277
67 | RRIRHRPPRLPRPRPRPFVQPRP | -0.14
68 | RRIRHRPPRLPRPRPRPFWRPRP | -0.0343
69 | RRIRHRPPRLPRPRPRPGAPPRP | 0.384
70 | RRIRHRPPRLPRPRPRPGCDPRP | 0.123
71 | RRIRHRPPRLPRPRPRPGDGPRP | 0.209
72 | RRIRHRPPRLPRPRPRPGGMPRP | 0.274
73 | RRIRHRPPRLPRPRPRPGHQPRP | -0.149
74 | RRIRHRPPRLPRPRPRPGINPRP | -0.422
75 | RRIRHRPPRLPRPRPRPGIRPRP | -0.00441
